Results reported in the supplement of paper PMC7125110.
± gives the standard error. Fewer inactive variants are shown than the library holds.

B1: glmS ribozyme (parent)
chain: AUAAAAGCGCCAGAACUACAGAAAUGUAGUUGACGAGGAGGAGGUUUAUCGAAUUUUCGGCGGAUGCCUCCAAA

How the values were obtained:
Conditions in all cases: with glucosamine-6-phosphate
[1] = variants of: B1; assay: self-cleavage kobs at 40 uM GlcN6P; higher = faster cleavage; RNA array
In short: (§1)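 Barcoded glmS ribozyme variants on sequenced MiSeq chips were transcribed in situ by E. coli RNA polymerase and tracked through a hybridised Cy3 probe at 37 °C. Glucosamine-6-phosphate (40 μM to 10 mM) in HEPES/KCl/Mg(OAc)2 buffer was flowed in, and tiles were imaged over ~14 h. Signals were normalised to baseline and to non-cleaving reference variants; per-tile medians were fit to one- or two-exponential decays to give kobs. kcat and KM came from weighted Michaelis–Menten fits across concentrations.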

[2] = variants of: B1; assay: self-cleavage kobs at 10000 uM GlcN6P; higher = faster cleavage; RNA array
In short: as §1

[3] = variants of: B1; assay: self-cleavage kobs at 2500 uM GlcN6P; higher = faster cleavage; RNA array
In short: as §1

[4] = variants of: B1; assay: self-cleavage kobs at 160 uM GlcN6P; higher = faster cleavage; RNA array
In short: as §1

[5] = variants of: B1; assay: self-cleavage kobs at 640 uM GlcN6P; higher = faster cleavage; RNA array
In short: as §1

Row | Variant | self-cleavage kobs at 40 uM GlcN6P [1] | self-cleavage kobs at 10000 uM GlcN6P [2] | self-cleavage kobs at 2500 uM GlcN6P [3] | self-cleavage kobs at 160 uM GlcN6P [4] | self-cleavage kobs at 640 uM GlcN6P [5]
1 | AUAAAAGCGCCAGAACUACAGAAAUGUAGUUGACGAGGAGGAGGUUUAUCGAAUUUUCGGAGGCUGCCUCAAAA [C61A A64C C71A] | < 1e-05 s⁻¹ | < 1e-05 s⁻¹ | – | – | –
2 | AUAAAAGCGGAAGAACUACAGAAAUGUAGUUGACGAGGAGGUGGUUUAUCGAAUUUUCGGCGGAUGCCUCCAAA [C10G C11A A42U] | < 1e-05 s⁻¹ | < 1e-05 s⁻¹ | < 1e-05 s⁻¹ | – | –
3 | AUAAAAGCGCCAGAACUACAGAAAUGUAGUUGACGAUGAGGAGGUUUAUCCAAUUUUCGGCGGAUGCCUCUAAA [G37U G51C C71U] | < 1e-05 s⁻¹ | < 1e-05 s⁻¹ | – | < 1e-05 s⁻¹ | < 1e-05 s⁻¹
4 | AUAAAAGCGCCAAAACUACAGAAAUGUAGUUGACGAGGAGGAGGUUUAUCGAAUUUUCGGCUGAUGCCUCCAAA [G13A G62U] | < 1e-05 s⁻¹ | < 1e-05 s⁻¹ | < 1e-05 s⁻¹ | < 1e-05 s⁻¹ | < 1e-05 s⁻¹
5 | AUAAAAGCGCCUGAACUACAGAAAUGUAGUUGACGACGAGGUGGUUUCUCGAAUUUUCGGCGGAUGCCUCCAAA [A12U G37C A42U A48C] | < 1e-05 s⁻¹ | – | – | – | –
6 | AUAAAAGCGCCAGGAAUACAGAAAUGUAGUUGACGAGGAGGAGGUUUAUCGAAGUUUCGGCGGAUGCCUCCAAA [A14G C16A U54G] | 0.000211 ± 4.8e-05 s⁻¹ | 0.00361 ± 0.00067 s⁻¹ | – | – | –
7 | AUAAAAGCGCCAGAACUACAGAAAUGUAGUUGAGGAGGAGGAGGUUUAUCGCAUUUUCGGCGGAUGCCUCCAAA [C34G A52C] | < 1e-05 s⁻¹ | < 1e-05 s⁻¹ | < 1e-05 s⁻¹ | < 1e-05 s⁻¹ | < 1e-05 s⁻¹
8 | AUAAAAGCGCCGGAACUACAGAAAUGUAGUUGACGAGGAGGAGGUUUAUCGAAUUUUCGGCGUAUGCCUCCAAA [A12G G63U] | < 1e-05 s⁻¹ | < 1e-05 s⁻¹ | – | < 1e-05 s⁻¹ | –
9 | AUAAAGGCGCCAGAACUACAGAAAUGUAGUUGACGAGGAGUAGGUUUAUCGAAUUUGCCGCGGAUGCCUCUAAA [A6G G41U U57G G59C C71U] | < 1e-05 s⁻¹ | < 1e-05 s⁻¹ | < 1e-05 s⁻¹ | < 1e-05 s⁻¹ | < 1e-05 s⁻¹
10 | AUAAAAGCGCCAGAACUACAGAAAUGUAGUUAACGAGGAGGAGGUUUAUCGAAUUUUCGGCAGAUGCCUCCAAA [G32A G62A] | < 1e-05 s⁻¹ | < 1e-05 s⁻¹ | – | < 1e-05 s⁻¹ | < 1e-05 s⁻¹
11 | AUAAAGGCGCCAGAACUACAGAAAUGUAGUUGGCUAGGAGGAGGUUUAUCGAAUUUUCGGCGGAUGCGUUCAAA [A6G A33G G35U C68G C70U] | 6.36e-05 ± 1.8e-05 s⁻¹ | 0.000167 ± 3.1e-05 s⁻¹ | – | – | –
12 | AUAAAAGCGCCAGAACUACAGAAAUGUAGUUCACGAGGAGGAGAUUUAUCGAAUUUUCGGCGGAUGCCUCCAAA [G32C G44A] | < 1e-05 s⁻¹ | < 1e-05 s⁻¹ | < 1e-05 s⁻¹ | < 1e-05 s⁻¹ | < 1e-05 s⁻¹
13 | AUAAAAGCGCCAGAACUACAGAAAUGUAGGUGACGAGGAGGAGGUUUAUCCAAUUUUCGGCGGAUGCCUCCAAA [U30G G51C] | < 1e-05 s⁻¹ | – | – | – | –
14 | AUAAAACCGCCAGAAGUACAGAAAUGUAGUUGACGAGGAGGAGGUUUAUCGAAUUUUCGGAGGAUGCCUCCAAA [G7C C16G C61A] | < 1e-05 s⁻¹ | < 1e-05 s⁻¹ | < 1e-05 s⁻¹ | – | < 1e-05 s⁻¹
15 | AUAAAAGCGCCAGACCUACAGAAAUGUAGUUGACGAGGAGGAGGUUUAUCGAAUUUCCGGCGGAUGCCUCCAAA [A15C U57C] | < 1e-05 s⁻¹ | 5.67e-05 ± 6.7e-06 s⁻¹ | – | – | –
16 | AUAAAAGCGCCAGAACUACAGAAAUGUAGUUGACGAGGAGGAGGUUUAUCGAAUUUUCGGUGGAUGGGUCCAAA [C61U C67G C68G] | 4.73e-05 ± 1.6e-05 s⁻¹ | – | – | – | –
17 | AUAAAAGCGCCAGAACUACAGAAAUGUAGUUCACGAGGAGGAGGUAUAUCGAAUUUUCGGCGGAUGCCUCCAAA [G32C U46A] | < 1e-05 s⁻¹ | – | – | < 1e-05 s⁻¹ | < 1e-05 s⁻¹
18 | AUAAAAGCGCCAUCACUACAGAAAUGUAGUUGACUAGGAGGAGGUUUAUCGAAUUUUCCGCGGAUGCCUCCAAA [G13U A14C G35U G59C] | < 1e-05 s⁻¹ | – | – | – | –
19 | AUAAAAGCGCCAGAACUACAGAAAUGUAGUUGACGAGGAGGAGGUUUAUCGAAUUGUCGGCAGAUGCCUCCAAA [U56G G62A] | < 1e-05 s⁻¹ | < 1e-05 s⁻¹ | < 1e-05 s⁻¹ | – | –
20 | AUAAAAGCGGCAGAUCUACAGAAAUGUAGUUGACGUGAAGGAGGUUUAUCGAGUUUUCGGCGGAUGCGUUCAAA [C10G A15U A36U G38A A53G C68G C70U] | 0.000148 ± 4.5e-05 s⁻¹ | – | – | – | –
21 | AUAAAAGCCCCAGAACUACAGAAAUGUAGUUGACGAGGAGGAGAUUUAUCGUAUUUUCGGCGGAUGCCUCCAAA [G9C G44A A52U] | < 1e-05 s⁻¹ | – | – | – | –
22 | AUAAAUGGGCCAGAACUACAGAAAUGUAGUUGACGAGGAGGAGGUUUUUCGAAUUUUCGGCCGAUGCCUCCAAA [A6U C8G A48U G62C] | < 1e-05 s⁻¹ | – | – | – | –
23 | AUAAAAGCGCCAUAACUACAGAAAUGUAGUUGACGAGGAUGAGGUUUUUCGAAUUUUCGGCGGAUGACUCCAAA [G13U G40U A48U C67A] | < 1e-05 s⁻¹ | < 1e-05 s⁻¹ | – | – | –
24 | AUAAAAGCGCCAGAACUACAGAAAUGUAGUUGACGAGGACGAGGUUUAUCGAAUUUUCGGCGGAUGCCUCCAAA [G40C] | 0.000161 ± 2.8e-06 s⁻¹ | – | 0.00453 ± 0.0002 s⁻¹ | 0.000388 ± 1.8e-05 s⁻¹ | 0.00123 ± 3.8e-05 s⁻¹
25 | AUAAAAUCGCCAAAUCUACAGAAAUGUAGUGGACGAGGAGGAGGUUUAGCGAAUUUUCGGCGGAUGACUCCAAA [G7U G13A A15U U31G U49G C67A] | < 1e-05 s⁻¹ | – | – | – | –
26 | AUAAAAGCGCCAGAAGUACAGAAAUGUAGUUGACGAAGAAGAGGUUUGUCGAAUUUUCGGCGGAUGCCUCCAAA [C16G G37A G40A A48G] | < 1e-05 s⁻¹ | < 1e-05 s⁻¹ | – | – | –
27 | AUAAAAGCGCCACAACUACAGAAAUGUAGUAGACGAGGAGGAGGUUUAUCAAAUUUUCGGCGGAUGCCUCCAAA [G13C U31A G51A] | < 1e-05 s⁻¹ | – | – | – | –
28 | AUAAAACCGCCAGAACUACAGAAAUGUAGUUGGCGAGGAGGAGGUUUAUCGAAUUUUCGGCGGAUGCCUCCAAA [G7C A33G] | < 1e-05 s⁻¹ | < 1e-05 s⁻¹ | – | < 1e-05 s⁻¹ | < 1e-05 s⁻¹
29 | AUAAAAGCGCCAGAACUACAGAAAUGUAGUUGACGGGGAGGAGGUUUAUCAAAUUUUCGGCGGAUGCCUCCAAA [A36G G51A] | < 1e-05 s⁻¹ | – | – | < 1e-05 s⁻¹ | < 1e-05 s⁻¹
30 | AUAAAAGCGCCAGAACUACAGAAAUGUAGUUGACUAGGAGGAGGUUUAUCGAAUUUUGGGCUGAUGCCUCCAAA [G35U C58G G62U] | < 1e-05 s⁻¹ | – | – | – | –
